Experimental data from patent publication US12297265B2, “Antibody and use thereof” (SICHUAN KELUN-BIOTECH BIOPHARMACEUTICAL CO., LTD., priority 2018, dated 2025).

Columns and labels:
[1] = biological target: T1, human Claudin18.2 (Homo sapiens, UniProt P56856); experiment: Cellular ELISA on NUGC-4 cells; type: binding; design: cell lines endogenously expressing human Claudin18.2; host or cells: NUGC-4 human gastric cancer cell line
Description: Human Claudin18.2 is a four transmembrane protein and has a complex structure. Cellular ELISA was thus carried out to maintain the structure of Claudin18.2. The stable cell line L929-Claudin 18.2 constructed in Example 1 were used for detection. Specifically, L929-Claudin 18.2 adherent cells were detached by 2 mM EDTA treatment. The cells were resuspended and adjusted to 2×10^5/mL and 100 μL of the resuspension was plated into 96 well plate and incubated overnight at 37° C. The next day, the media was removed, and the plate was washed with PBS once. 100 μL/well 4% formaldehyde was added to the plate. After 30 min of incubation at room temperature, formaldehyde was removed, followed by washing twice with PBS. […] The absorbance at 450 nm was read on a plate reader (MD, SpectraMax M2) and the results were subjected to curve fitting by Graphpad Prism.
To determine binding affinity of the candidate antibodies to cell lines endogenously expressing human Claudin18.2, FACS analysis was performed to detect human Claudin18.2 expression level on NUGC-4 cells (purchased from Japan JCRB cell bank, catalog number: JCRB0834) which endogenously expresses human Claudin18.2. […] The binding affinity between candidate antibodies and NUGC-4 cells was then determined by Cellular ELISA following the same protocol as above.

[2] = tested on: NUGC-4 cells; experiment: NK cell mediated ADCC on NUGC-4 cells (LDH); type: cell-based, human; settings: NUGC-4 target cells, NK92MI-CD16a effector cells
Description: (§1) The steps were as follows: HEK293T-Claudin 18.2, L929-Claudin 18.2, KATOIII-Claudin 18.2 and NUGC-4 cells were harvested and centrifuged followed by adjustment of cell density. 1×10^4/well of cells were plated on a plate and incubated overnight. The medium was removed on the next day. NK92MI-CD16a cells (Huabo Biopharm) were centrifuged, resuspended in MEMA medium and adjusted to 1×10^6/mL, then 50 μL/well cells were added to the corresponding wells. […] For HEK293T-Claudin18.2, L929-Claudin18.2 and KATOIII-Claudin18.2 cells, ten antibody concentrations were tested, starting from 40 μg/mL with 5-fold dilution. For NUGC-4 cells, eleven antibody concentrations were tested, starting from 2 mg/mL with 5-fold dilution. 50 μL/well of the diluted antibodies were added to the corresponding wells and the reactions were left to stand in incubator at 37° C., 5% CO2 and incubated for 5.5h. Lysis buffer was then added to the positive control well and incubated for another 0.5h. 50 μL/well of Lactate Dehydrogenase (LDH) detection agent (DOJINDO LABORATORISE, CK12) were added to the wells and the absorbance at 490 nm were taken every 10 min on a plate reader (MD, SpectraMax M2). The results were imported into Graphpad Prism for curve fitting.

[3] = tested on: HEK293T-Claudin 18.2 cells; experiment: NK cell mediated ADCC on HEK293T-Claudin 18.2 cells (LDH); type: cell-based; settings: HEK293T-Claudin 18.2 target cells
Description: as §1
The cell used was HEK293T-Claudin 18.2. The ADCC activity of antibody 2C6.9-hz21 on HEK293T-Claudin 18.2 is stronger than that of IMAB362.

[4] = tested on: KATOIII-Claudin 18.2 cells; experiment: NK cell mediated ADCC on KATOIII-Claudin 18.2 cells (LDH); type: cell-based; settings: KATOIII-Claudin 18.2 target cells, NK92MI-CD16a effector cells
Description: as §1

[5] = Pharmacokinetics in SCID mice; type: in vivo; settings: 10 mg/kg intravenously
Description: Blood samples were taken 8 h, 1 d, 3 d, 8 d and 15 d after injection and serum antibody concentrations were determined by Cellular ELISA as described in Example 8. […] The data of mouse serum was subjected to curve fitting.

[6] = biological target: T1, human Claudin18.2; experiment: Flow cytometry affinity to HEK293T-Claudin 18.2 cells; type: binding; design: expressed in transfected cells
Description: The affinity of 2C6.9-hz21 to human claudin 18.2 on cell membrane was detected using HEK293T-Claudin 18.2 cells, as follows. HEK293T-Claudin 18.2 cells were detached and centrifuged, followed by washing for twice with PBS. And then the cells were resuspended in PBS containing 1% BSA and were plated into 96-well tip bottom plate at 300000 cells per well in a volume of 50 μl for 20 wells in total. 2C6.9-hz21 or IMAB362 antibody was then added with 11 concentrations starting from 1000 nM with three-fold dilution. Human IgG was served as negative control. The reactions were mixed well and incubated for 1 h at 4° C. in the dark. Following by three times of washing with PBS, the FITC-labelled anti-human Fc secondary antibody (Biolegend, 409322) was added and incubated for 0.5h in the dark. Detection was performed by flow cytometry (Beckman, Cytoflex) after washing for three times with PBS.

[7] = biological target: T1, human Claudin18.2; experiment: Cellular ELISA on L929-Claudin 18.2 cells; type: binding; design: expressed in transfected cells; host or cells: L929, infected with pLVX-IRES-puro lentivirus, puromycin-selected monoclonal line; cells were formaldehyde-fixed for the cellular ELISA
Description: Human Claudin18.2 is a four transmembrane protein and has a complex structure. Cellular ELISA was thus carried out to maintain the structure of Claudin18.2. The stable cell line L929-Claudin 18.2 constructed in Example 1 were used for detection. Specifically, L929-Claudin 18.2 adherent cells were detached by 2 mM EDTA treatment. The cells were resuspended and adjusted to 2×10^5/mL and 100 μL of the resuspension was plated into 96 well plate and incubated overnight at 37° C. The next day, the media was removed, and the plate was washed with PBS once. 100 μL/well 4% formaldehyde was added to the plate. After 30 min of incubation at room temperature, formaldehyde was removed, followed by washing twice with PBS. Blocking buffer (PBS containing 2% BSA) was then added to the plate at 100 μL/well, and incubated at 37° C. for 2 h. After removal of blocking buffer, 100 μL/well of serially diluted antibodies (starting from 1 μM, with 4-fold dilution, for a total of 11 concentrations) were added to the corresponding wells, which were incubated at 37° C. for 2h afterwards. The plate was washed with 250 μL PBST for 5 times, and was allowed to stand for 2 min each time. 100 μL/well of horseradish peroxidase labeled anti-Human IgG secondary antibody (HRP-anti-Human IgG, Jackson ImmunoResearch, 109-035-003) diluted 1:10000 in PBS (containing 2% BSA) was added to the plate. The plate was incubated at 37° C. for 1 h and washed with 250 μL PB ST 6 times, wherein the plate was allowed to stand for 2 min each time. 100 μL/well of TMB solution (Thermo, 34029) was added. The reactions were incubated at 37° C. for 20 min and stopped with 50 μL 2 mol/L H2504. The absorbance at 450 nm was read on a plate reader (MD, SpectraMax M2) and the results were subjected to curve fitting by Graphpad Prism.

OD450 (Max signal value) [1]: Not detected | Max MFI [6]: 156715.7 | Max Signal Value (OD450) ([7]; Table 8 experiment): 0.82 OD450 | Max Signal Value (OD450) ([7]; Table 9 experiment): 0.53 OD450
Substance: IMAB362: Zolbetuximab (IMAB362) developed by Astellas, human-mouse chimeric IgG1 antibody targeting Claudin 18.2; control antibody, sequences from CN 101312989 B [reference compound]
Max. Cytotoxicity [2]: 35% | Max. Cytotoxicity ([3]; NK92MI-CD16a effector cells, Table 13): 55% | Max Cytotoxicity ([3]; Table 14 experiment): 20% | Max. Cytotoxicity [4]: 49% | AUC [5]: 7391.22 µg·h/mL
